Results taken from paper PMC5425128, “Functional human GRIN2B promoter polymorphism and variation of mental processing speed in older adults”.

Target: T1, Elk-1 (human, UniProt P19419 1-428)
T1 sequence: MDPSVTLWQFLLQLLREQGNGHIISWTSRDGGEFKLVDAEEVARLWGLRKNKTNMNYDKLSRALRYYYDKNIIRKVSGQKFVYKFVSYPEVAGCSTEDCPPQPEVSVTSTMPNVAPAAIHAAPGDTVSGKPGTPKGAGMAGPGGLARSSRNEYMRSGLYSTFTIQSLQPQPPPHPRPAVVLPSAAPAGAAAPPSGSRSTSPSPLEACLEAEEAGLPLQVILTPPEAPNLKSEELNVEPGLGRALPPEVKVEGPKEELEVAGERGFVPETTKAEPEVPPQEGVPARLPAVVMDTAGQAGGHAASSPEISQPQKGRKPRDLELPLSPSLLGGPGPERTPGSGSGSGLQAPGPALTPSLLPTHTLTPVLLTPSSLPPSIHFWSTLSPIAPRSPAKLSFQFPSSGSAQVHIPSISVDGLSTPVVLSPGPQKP
Experiment: EMSA; 1 ug Elk-1, 10 mM MgCl2, no poly(dI-dC); 50 mM HEPES pH 7.5, 10 mM MgCl2, 5% glycerol, 1 mM DTT, 0.3% BSA, 1 mM EDTA; 1 h on ice; 6% gel (HEPES buffer pH 6.3), no poly(dI-dC)
Settings: protein: commercial; blunt

B1: GRIN2B A allele (rs3764030 A) (dsDNA)
DNA 1: CATCTCCGGGGAACACGCGAA
DNA 2: TTCGCGTGTTCCCCGGAGATG
binding result: binds
